Patent publication US20240293570A1 (priority 2021, published 2024)
Where two headings read alike, the source gives them in different places.

Assays:
[1] = Stability (placement) test of ADCs at 40° C. in dark for 14 days, DAR and polymer content; format: physicochemical
Procedure: (§1) Polymers (high molecular components) of the antibody-drug conjugates were tested using molecular exclusion high-performance liquid chromatography (SE-HPLC). A Biocore SEC chromatographic column (7.8×300 mm, […]) was used, and the mobile phase was 50 mM phosphate containing 300 mM sodium chloride (pH 6.8), with a flow rate of 0.5 mL/min. Samples of […] and 10 μl were injected. […] The polymer content of an antibody-drug conjugate was calculated using an area normalization method.
(§2) A drug-antibody conjugating ratio (also known as drug-antibody ratio, abbreviated as DAR) of the antibody-drug conjugate was tested using reversed-phase high-performance liquid chromatography-mass chromatography (RP-HPLC-MS). The ADC sample was diluted with 50 mmol/L Tris buffer (pH 8.0) to 1 mg/ml. A fresh dithiothreitol (DTT) stock solution was added to achieve a final DTT concentration of 50 mmol/L. Incubation was performed at 37° C. for 30 minutes. A PLRP-S chromatographic column (1000 Å pores, 2.1×50 mm, 5) μm) was used, and the column temperature was 70° C. The flow rate was 0.25 mL/min. […] of sample was injected; the mobile phase A was an aqueous solution of 0.1% formic acid (V/V) and 0.025% trifluoroacetic acid (V/V), and the mobile phase B was an acetonitrile solution of 0.1% formic acid (V/V) and 0.025% trifluoroacetic acid (V/V); the running time was 0-3 minutes, where 27% of mobile phase B ran for 3 minutes, and the mobile phase B ran from 27% to 49% within 3-25 minutes, from 49% to 95% within 25-26 minutes, at 95% within […], from 95% to 27% within 30-31.5 minutes, and at 27% for 31.5-45 minutes. […] Mass spectrometry drying gas was at a temperature of 350° C. and a flow rate of 7.0 L/min, the pressure of an atomizer was 40 psi, capillary voltage was positive 3000V and negative 3000V, and the mass range was 500-1600 m/z. The molecular weight of each mass spectrometry peak (ranging from 20000 to 70000) was calculated by deconvolution and compared with light and heavy chain molecular weights of un-conjugated antibodies to calculate a drug load at each peak, so as to determine the load of a corresponding ultraviolet peak. Area percentages of heavy and light chain ultraviolet peaks were calculated through integration, and a weighted average DAR of the antibody-drug conjugate was calculated by combining the area percentages with the drug load distribution of each peak.
Stability testing method: The stability of the obtained ADCs was tested for 14 days. The ADCs were placed at 40° C. in dark. Sampling points were days 0, 7, and 14. The polymer content and DAR value of samples at different sampling points were tested according to the method in Experimental Example 1.

[2] = format: physicochemical; details: ADC with Her2 antibody, RP-HPLC-MS
Procedure: as §2

[3] = Polymer (high molecular component) content of antibody-drug conjugates by SE-HPLC; format: physicochemical; details: ADC with Her2 antibody
Procedure: as §1

[4] = Naked antibody content of antibody-drug conjugates by hydrophobic interaction chromatography (HIC); format: physicochemical; details: ADC with Her2 antibody
Procedure: The content of naked antibodies in the antibody-drug conjugate was tested using hydrophobic interaction chromatography (HIC). A Biocore HIC-Butyl chromatographic column (4.6×150 mm, 5 μm) was used. The mobile phase A was a 100 mM phosphate aqueous solution containing 2 M ammonium sulfate (pH 7.0), and the mobile phase B was a 100 mM phosphate aqueous solution (pH 7.0): isopropanol=80:20 (V/V). Samples of 50 μg and 10 μl were injected. The mobile phase A at the flow rate of 1 mL/min ran at 100% for 3 minutes. Within 3-25 minutes, the mobile phase B ran from […] to 100%, while the mobile phase B decreased to 0% at 25.1 and ran to 30 minutes. […] The naked antibody content of the antibody-drug conjugate was calculated using an area normalization method based on the retention time of a naked antibody peak located by the antibody of the antibody-drug conjugate.

Row | Compound | DAR ([1]; Day 0, 40° C. in dark) | Polymer content (%) ([1]; Day 0, 40° C. in dark) | DAR ([1]; Day 7, 40° C. in dark) | Polymer content (%) ([1]; Day 7, 40° C. in dark) | DAR ([1]; Day 14, 40° C. in dark) | Polymer content (%) ([1]; Day 14, 40° C. in dark) | DAR [2] | Polymer content (%) [3] [%] | Naked antibody content (%) [4] [%]
1 | C=C1C[C@@H]2CC[C@@]34C[C@H]5OC6C(O[C@H]7CC[C@H](CC(=O)C[C@@H]8[C@@H](OC)[C@@H](C[C@H](O)CNC(=O)CNC(=O)[C@H](Cc9ccccc9)NC(=O)CNC(=O)CNC(=O)CCOCCOCCN(CCOCCOCCC(=O)NCC(=O)NCC(=O)N[C@@H](Cc9ccccc9)C(=O)NCC(=O)NCOCC(=O)N[C@H]9CCc%10c(C)c(F)cc%11nc%12c(c9c%10%11)Cn9c-%12cc%10c(c9=O)COC(=O)[C@]%10(O)CC)C9CCC(NC(=O)CN%10CCOCCOCCOCCN(C(=O)CCCCCN%11C(=O)C=CC%11=O)CCOCCOCCOCC%10)CC9)O[C@H]8C[C@H]8O[C@@H](CC[C@@H]1O2)C[C@@H](C)C8=C)O[C@@H]7[C@@H]6O3)[C@H]5O4 (stereo partly drawn) [Example 19] | 3.92 | 1.53 | 3.91 | 1.56 | 3.87 | 1.49 | 3.92 | 1.53 | 5.22
2 | C=C1C[C@@H]2CC[C@@]34C[C@H]5OC6C(O[C@H]7CC[C@H](CC(=O)C[C@@H]8[C@@H](OC)[C@@H](C[C@H](O)CNC(=O)CNC(=O)[C@H](Cc9ccccc9)NC(=O)CNC(=O)CNC(=O)CCOCCOCCN(CCOCCOCCC(=O)NCC(=O)NCC(=O)N[C@@H](Cc9ccccc9)C(=O)NCC(=O)NCOCC(=O)N[C@H]9CCc%10c(C)c(F)cc%11nc%12c(c9c%10%11)Cn9c-%12cc%10c(c9=O)COC(=O)[C@]%10(O)CC)C9CCC(NC(=O)CN%10CCOCCOCCOCCN(C(=O)CCOCCOCCOCCOCCN%11C(=O)C=CC%11=O)CCOCCOCCOCC%10)CC9)O[C@H]8C[C@H]8O[C@@H](CC[C@@H]1O2)C[C@@H](C)C8=C)O[C@@H]7[C@@H]6O3)[C@H]5O4 (stereo partly drawn) [Example 20] | 3.85 | 1.48 | 3.87 | 1.50 | 3.89 | 1.43 | 3.85 | 1.48 | 4.23
3 | C=C1C[C@@H]2CC[C@@]34C[C@H]5OC6C(O[C@H]7CC[C@H](CC(=O)C[C@@H]8[C@@H](OC)[C@@H](C[C@H](O)CNC(=O)CNC(=O)[C@H](Cc9ccccc9)NC(=O)CNC(=O)CNC(=O)CN9CCOCCN(C(=O)CCN%10C(=O)C=CC%10=O)CCOCC9)O[C@H]8C[C@H]8O[C@@H](CC[C@@H]1O2)C[C@@H](C)C8=C)O[C@@H]7[C@@H]6O3)[C@H]5O4 [Example 21] | 4.08 | 0.87 | 4.06 | 0.90 | 4.10 | 0.88 | 4.08 | 0.87 | 2.56
4 | CCc1c2c(nc3ccc(O)cc13)-c1cc3c(c(=O)n1C2)CCC(=O)[C@@]3(CC)OC(=O)N(C)CCN(C)C(=O)COCNC(=O)CNC(=O)[C@H](Cc1ccccc1)NC(=O)CNC(=O)CNC(=O)CN1CCOCCN(C(=O)CCN2C(=O)C=CC2=O)CCOCC1 [Example 23] | 4.12 | 0.41 | 4.15 | 0.45 | 4.16 | 0.56 | 4.12 | 0.41 | 0.00
5 | C=C1C[C@@H]2CC[C@@]34C[C@H]5OC6C(C[C@H]7CC[C@H](CC(=O)C[C@@H]8[C@@H](OC)[C@@H](C[C@H](O)CNC(=O)CNC(=O)[C@H](Cc9ccccc9)NC(=O)CNC(=O)CNC(=O)CCC(=O)N9CCOCCN(C(=O)CCN%10C(=O)C=CC%10=O)CCOCC9)O[C@H]8C[C@H]8O[C@@H](CC[C@@H]1O2)C[C@@H](C)C8=C)O[C@@H]7[C@@H]6O3)[C@H]5O4 [Example 26] | 3.92 | 0.70 | 3.92 | 0.72 | 3.96 | 0.66 | 3.92 | 0.70 | 1.26
6 | CC[C@@]1(O)C(=O)OCc2c1cc1n(c2=O)Cc2c-1nc1cc(F)c(C)c3c1c2[C@@H](NC(=O)COCNC(=O)CNC(=O)CNC(=O)CNC(=O)CN1CCOCCN(C(=O)CCN2C(=O)C=CC2=O)CCOCC1)CC3 [Example 28] | 3.84 | 0.56 | 3.89 | 0.57 | 3.82 | 0.65 | 3.84 | 0.56 | 2.76
7 | C=C1C[C@@H]2CC[C@@]34C[C@H]5OC6C(O[C@H]7CC[C@H](CC(=O)C[C@@H]8[C@@H](OC)[C@@H](C[C@H](O)CNC(=O)CNC(=O)[C@H](Cc9ccccc9)NC(=O)CNC(=O)CNC(=O)CN9CCOCCOCCN(C(=O)CCCCCN%10C(=O)C=CC%10=O)CCOCCOCC9)O[C@H]8C[C@H]8O[C@@H](CC[C@@H]1O2)C[C@@H](C)C8=C)O[C@@H]7[C@@H]6O3)[C@H]5O4 [Example 39] | 4.30 | 0.90 | 4.32 | 0.92 | 4.30 | 0.98 | 4.30 | 0.90 | 0.00
8 | C=C1C[C@@H]2CC[C@@]34C[C@H]5OC6C(O[C@H]7CC[C@H](CC(=O)C[C@@H]8[C@@H](OC)[C@@H](C[C@H](O)CNC(=O)CNC(=O)[C@H](Cc9ccccc9)NC(=O)CNC(=O)CNC(=O)CN9CCOCCOCCN(C(=O)CCCC%10C(=O)C=CC%10=O)CCOCCOCC9)O[C@H]8C[C@H]8O[C@@H](CC[C@@H]1O2)C[C@@H](C)C8=C)O[C@@H]7[C@@H]6O3)[C@H]5O4 [Example 41] | 3.84 | 1.52 | 3.81 | 1.53 | 3.81 | 1.59 | 3.84 | 1.52 | 5.05
9 | C=C1C[C@@H]2CC[C@@]34C[C@H]5OC6C(O[C@H]7CC[C@H](CC(=O)C[C@@H]8[C@@H](OC)[C@@H](C[C@H](O)CNC(=O)CNC(=O)[C@H](Cc9ccccc9)NC(=O)CNC(=O)CN9CCOCCOCCN(C(=O)CCCC%10C(=O)C=CC%10=O)CCOCCOCC9)O[C@H]8C[C@H]8O[C@@H](CC[C@@H]1O2)C[C@@H](C)C8=C)O[C@@H]7[C@@H]6O3)[C@H]5O4 [Example 42] | 4.12 | 1.25 | 4.11 | 1.28 | 4.08 | 1.26 | 4.12 | 1.25 | 1.06
